This series can be described thus: yeast display, Sf9 membrane polyspecificity reagent, FACS + sequencing; frameworks hold sequencing errors. The procedure, abridged:
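A synthetic nanobody library was expressed on Saccharomyces cerevisiae BJ5465 by galactose induction for 36–48 hours. The library was stained for 1 hour at 4 °C with 10% biotinylated, detergent-solubilized Sf9 membrane reagent and enriched with streptavidin microbeads before FACS. Low and high (top ~1%) gates were set on anti-HA fluorescence for expression and streptavidin fluorescence for reagent binding, and each polyreactivity label reflects the gate of origin.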
In the case of “QVQLVESGGGLVQAGGSLRLSCAASGGMGWYRQAPGKERELVATISSVGSTNYADSVKGRFTISRDNAKNTVYLQMNRLKPEDTAVYYCNATGVQYFLYGYWGQGTQVTVSS”, the “polyreactivity (PSR sort gate)” value is recorded as “low polyreactivity”. The entry for “QVQLVESGGGLVQAGGSLRLSCAASGGMGWYRQAPGKERELVATISSVGSTNYADSVKGRFTISRDNAKNTVYLQMNSLKPEDTAVYYCIATGVQYFLYGYWGQGTQVTVSS” is “low polyreactivity”; for “QVQLVESGGGLVQAGGSLRLSCAASGGNFWYNTMGWYRQAPWKERELVAAISDSGGRTSYADSVKGRVTISRDNANHTVYLQMNSLKPEDTAVYYCNVDYVVSRGFIYRVDYWGQGTQVTVSS” it is “low polyreactivity”. As for “QVQLVESGGGLVQAGGSLRLSCAASGGSFYPYAMGWYRQAPGKERELLAAISWSGDITYYADSVKGRFTISRDNAKNTVYLLINSLKPEDTAVYYCAAGRVVDKDPSYFREGDYWGQGTQVTVSS”, the “polyreactivity (PSR sort gate)” value is reported as “low polyreactivity”. The entry for “QVQLVESGGGLVQAGGSLRLSCAASGGTCWWYAMGWYRQAPGKEREFVAAISQRGTSTYYADSVKGRFTISRDNAKNTVYLQMNSLKPEDTAVYYCAVRAYRWRSTLGLYYWGQGTQVTVSS” is “high polyreactivity”. The entry for “QVQLVESGGGLVQAGGSLRLSCAASGGTFALNAMGWYRQAPGKERELVADIDGRGGSTYYADSVKGRFTISRDNAKNTVYLQMNSLKPEVTAVYYCAARAPFLSVPSELDYWGQGTQVTVSS” is “low polyreactivity”; for “QVQLVESGGGLVQAGGSLRLSCAASGGTFAQYVMGWYRQAPGKERELVAAISRTGGRTYYADSVKGRFTISRDNAKNTVYLQMNSLKPEDTAVYYCARVYTSYGTPWTNYDYWGQGTQVTVSS” it is “high polyreactivity”; for “QVQLVESGGGLVQAGGSLRLSCAASGGTFARNALGWYRQAPGKERELVAAIRGGVSTNYADSVKGRFTISRDNAKNTVYLQMNSLKPEDTAVYYCNASPPTLEGYWGQGTQVTVSS” it is “low polyreactivity”.

As for “QVQLVESGGGLVQAGGSLRLSCAASGGTFDTYDMGWYRQAPGKERELVAAIRFGDGTTYYADSVKGRFTISRDNAKNTVYLQMNSLKPEDTAVYYCNTDDPGNYWYAEYDYWGQGTQVTVSS”, the “polyreactivity (PSR sort gate)” value is listed as “low polyreactivity”. Turning to “QVQLVESGGGLVQAGGSLRLSCAASGGTFEFYTMGGYRQAPGKERELVAVINASGDSTYYADSVKGRFTISRDNAKNTVYLQMNSLKPEYTAVYYCAADHRGEYDYWGQGTQVNVSS”, the “polyreactivity (PSR sort gate)” value is recorded as “low polyreactivity”.

“QVQLVESGGGLVQAGGSLRLSCAASGGTFEFYTMGWYRQAPGKERELVAVINASGDSTYYADSVKGRFTISRDNAKNTVYLQMNSLKPEDTAVYYCAADHRGEYDYWGQGTQVTVSS”: the “polyreactivity (PSR sort gate)” value is reported as “low polyreactivity”. The entry for “QVQLVESGGGLVQAGGSLRLSCAASGGTFENYAMGWYRQPPGKERELVAAISSGGSTNYADSVKGRFTISRDNAKNTVYLQMNSLKQEDTAVYYCARYRVWGSTGHKLFHDDYWGQGTQVTVSS” is “low polyreactivity”. With “QVQLVESGGGLVQAGGSLRLSCAASGGTFFAYAMGWYRQAPGERELVAAISWSGDSTYYADSVKGRFTISRDNAKNTVYLQMNSLKPEDTAVYYCAADYGFEYYYWGQGTQVTVSS”, the “polyreactivity (PSR sort gate)” value is reported as “high polyreactivity”. The entry for “QVQLVESGGGLVQAGGSLRLSCAASGGTFFGYAMGWYRQAPGKERELVAAIRWSDGRTYYADSVKGRFTISRDNAKNTVYLQMNSLKPEDTAVYDCNADDARLFDYWGQGTQVTVSS” is “low polyreactivity”; for “QVQLVESGGGLVQAGGSLRLSCAASGGTFGFNAMGWYRPAPGKERELVAAISSSGGRTYYADSVNGRFTISRDNAKNNVYLQMMSLKEEDTAVYYCAARVQVGGRSYVGYYYWGKGTQVTVSS” it is “high polyreactivity”; for “QVQLVESGGGLVQAGGSLRLSCAASGGTFGFYAMGWYRQAPGKERELVAAISWSGVGTYYADSVKGRFTISRDNAKNTVYLQMNSLKPEATAVYYCAAKQYTQKISSPGTILRYYYWGQGTQVTVSS” it is “high polyreactivity”. The entry for “QVQLVESGGGLVQAGGSLRLSCAASGGTFGSNAMGWYRQAPGKERELVARISGRGGRTYYADSVKGRFTISRDNAKNTVYLQMNSLKPEDTAVYYCAATYIIWGQGTQVNVSS” is “high polyreactivity”. The entry for “QVQLVESGGGLVQAGGSLRLSCAASGGTFGSNTMGWYRQAPGKERELVAAITSGVSTNYADSVKGRFTISRDNAKNTVYLQMNSLKPEDTAVYYCAKDLWSEEYETIITSYGFDYWGQGTQVTVSS” is “low polyreactivity”; for “QVQLVESGGGLVQAGGSLRLSCAASGGTFGSYAMGWYRQAPGKERELVAGITGSGGITKYADSVKGRFTISRDNAKNTVYLQMNSLKPEDTAVYYCNADYSVWYIRLSAYFTYDYWGQGTQVTVSS” it is “high polyreactivity”. With “QVQLVESGGGLVQAGGSLRLSCAASGGTFGYYAMGWYIQAPGTERELVAAISWSGGSTYYADSVKGRFTISRDNAKNTVYLQMNSLKAEDTAVYYCNAVTRFGYVKFDYWGQGTQVTVSS”, the “polyreactivity (PSR sort gate)” value is given as “high polyreactivity”. As for “QVQLVESGGGLVQAGGSLRLSCAASGGTFGYYTMGWYRPAPGKERELVSAISSGGGTDYADSVKGRFTISRDNAKNTVYLQMNSLKPEDTAVYYCNAKWLEWHYVFLPSYTMDYWGQGTQVTVSS”, the “polyreactivity (PSR sort gate)” value was “low polyreactivity”. As to “QVQLVESGGGLVQAGGSLRLSCAASGGTFIRYAMGWYRQAPGKERELVAAISSSGGSTYYADSVKGRFTISRDNAKNTVYLQMNSLKPEDTAVYYCNGRQSRFKYDYWGQGTQVTVSS”, the “polyreactivity (PSR sort gate)” value is “high polyreactivity”. The entry for “QVQLVESGGGLVQAGGSLRLSCAASGGTFISYAMGWYRQAPGKERELVAAISRGGSSTYYADSVKGRFTISRDNAKNTVYLQMNSLKPEDTAVYYCNKAYHRRDSEFGYWGQGTQVTVSS” is “high polyreactivity”. The entry for “QVQLVESGGGLVQAGGSLRLSCAASGGTFKYYTMGWYRQAPGKERELVAAISSGGITYYADSVKGRFTISRDNAKNTVYLQMNSLKPEDTAVYYCNVVSYYIAGGWYEGDYWGQGTQVTVSS” is “low polyreactivity”. The entry for “QVQLVESGGGLVQAGGSLRLSCAASGGTFLGNAMGWYRQAPGKERELVADITSGGSTNYADSVKGRFTISRDNAKNTVYLQMNSLKPEDTAVDYCNAEYSTSTVWEYDYWGQGTQVTVSS” is “low polyreactivity”; for “QVQLVESGGGLVQAGGSLRLSCAASGGTFLPNAMGWYRQAPWKERELVAAITSGGRTNYADSVKGRFTISRDNAKNTVYFQMNSLKPEDTAVYYCAARVRGYPTRPIPYYYWGQGTQVTVSS” it is “high polyreactivity”.

As for “QVQLVESGGGLVQAGGSLRLSCAASGGTFNHYAMGWYRQAPGKERELVSSITNGASTYYADSVKGRFTISRDNAKNTVYLQMNSLKPEDTAVYYCAARTAVGPIRSYWYDYWGQGTQVTVSS”, the “polyreactivity (PSR sort gate)” value was “low polyreactivity”. The entry for “QVQLVESGGGLVQAGGSLRLSCAASGGTFNRYAMGWYRQAPGKERELVAAISNGGGRTYYADSVKGRFTISRDNAKNTVYLQMNSLKPEDTAVYYCAKDLTRTSYRSAFDYWGQGTQVTVSS” is “high polyreactivity”; for “QVQLVESGGGLVQAGGSLRLSCAASGGTFNSNAMGWYRQAPGKEREFVAAISSSGGSTYYADSVKGRFTISRDNAKNTVYLQMNSLKPEDTAVYYCAKRYPYPNGRFRFGYWGQGTQVTVSS” it is “high polyreactivity”.

As for “QVQLVESGGGLVQAGGSLRLSCAASGGTFNSNAMGWYRQAPGKERELVAGITSGSDTSYADSVKGRFTISRDNAKNTVYLQMNSLKPEDSAVYYCATRDYPLYGYWGQGTQVTVSS”, the “polyreactivity (PSR sort gate)” value is recorded as “low polyreactivity”.

Turning to “QVQLVESGGGLVQAGGSLRLSCAASGGTFPTNAMGWYRQATGKERELVAAITSSGVRTYYADSVKGRFTISRDNAKNTVYLQLNSLKPEDTAVYYCKAVTRYVRLTDDDYWGQGTQVTVSS”, the “polyreactivity (PSR sort gate)” value is recorded as “high polyreactivity”. The entry for “QVQLVESGGGLVQAGGSLRLSCAASGGTFPYYAMGWYRQAPGKERELVADISGTDGSTYYADSVKGRFTISRDNAKNTVYLQMNSLKPEDTAVYYCAAEEVSWNGTGDYWGQGTQVTVSS” is “high polyreactivity”. The entry for “QVQLVESGGGLVQAGGSLRLSCAASGGTFQINAMGWYIQAPGKERELVAAISRSGGSTSYADSVKGRFTISRDNAKNTVYLQMNSLKPQDTAVYYCNKRVRATAWYDYWGQGTQVTVSS” is “high polyreactivity”; for “QVQLVESGGGLVQAGGSLRLSCAASGGTFRAYVMGWYRQAPGKERELVAAISRSGTRTYYADSVKGRFTISRDNAKNTVYLQMNSLKPEDTAVYYCAAQAGVYYDYEYWGQGTLVTVSS” it is “high polyreactivity”; for “QVQLVESGGGLVQAGGSLRLSCAASGGTFRKYTMGWYRQAPGKERELVAAISSTGSSTYYADSVKGRFTISRDNAKNTVYLQMNSLKPEDTAVYYCAADVFSGYYWPVLEDHWGQGTQVTVSS” it is “high polyreactivity”. For “QVQLVESGGGLVQAGGSLRLSCAASGGTFRNNAMGWYIQAPGKERELVAAISSSGTSTYYADSVKGRFTISRDNAKNTVYLQMNSLKPEDTAVYYCNADALGSPWWDHMDYWGQGTQVTVSS”, the “polyreactivity (PSR sort gate)” value was “low polyreactivity”. The entry for “QVQLVESGGGLVQAGGSLRLSCAASGGTFRRYAMGWYRQAPGKERELVAAISWTGGSTYYADSVKGRFTISRDNAKNTVYLQMNSLKPEDTGVYYCAAVGSSSSKGGYWGQGTQVTVSS” is “high polyreactivity”; for “QVQLVESGGGLVQAGGSLRLSCAASGGTFRTYTMGWYRQAPGRVRELVAGISSRGGSTYYADSVKGRFTISRDNAKKTLYLQMNSLKPEDTAVYNCAVRHLNKRRDDYWGQGTQVTVSS” it is “high polyreactivity”; for “QVQLVESGGGLVQAGGSLRLSCAASGGTFRTYVMGWYRQAPGKERELVAAISVSGGRTYYADSVKGRFTISRDNAKTTVYLQMNSLKPEDTAVYYCAAYWHGFFKYWEMGYWGQGTQVTVSS” it is “high polyreactivity”. On to “QVQLVESGGGLVQAGGSLRLSCAASGGTFRVYAMGWYRQAPGKERELFAAISSGGSTNYADSVKGRFTISRDNAKNTVYLQMNSLKPEDTAVYYCNAKYRYRFARSPIYYYWGQGTQVTVSS”, for which the “polyreactivity (PSR sort gate)” value is “high polyreactivity”. The entry for “QVQLVESGGGLVQAGGSLRLSCAASGGTFRVYAMGWYRQAPGKERELVAAITGRGGSTYYADSVKGRFTISLDNAKNTVDLQMNSLKPEDTAVYYCAKDPVTTYYKYDYWGQGTQVTVSS” is “low polyreactivity”.

For the origin of these results see the nanobody polyreactivity screen of Harvey et al. (2022).
